PMC3942486, “The Ansamycin Antibiotic, Rifamycin SV, Inhibits BCL6 Transcriptional Repression and Forms a Complex with the BCL6-BTB/POZ Domain” (PLoS ONE, 2014)

B1: 1-naphthyl-SMRT peptide, labelled with BODIPY TMR (peptide)
chain: LVATVKEAGRSIXEIPR
modifications: 1-naphthylalanine in place of histidine1426; BODIPY TMR dye coupled via the amino-terminal cysteine
B2: 2-naphthyl-SMRT peptide, labelled with BODIPY TMR (peptide)
chain: LVATVKEAGRSIXEIPR
modifications: 2-naphthylalanine in place of histidine1426; BODIPY TMR dye coupled via the amino-terminal cysteine

Target: BCL6-POZ domain (residues 7 to 128 of human BCL6, C8Q, C67R, C84N) (human, UniProt P41182 7-128, cysteine8 mutated to glutamine | cysteine67 mutated to arginine | cysteine84 …)
Assay: fluorescence polarisation; fixed concentration of BODIPY TMR-labelled SMRT peptide, increasing concentration of BCL6-POZ domain; PBS, 0.05% (v/v) Triton X-100, 0.1 mg/mL BSA; room temperature; triplicate; one-site binding (hyperbola) fit
Conditions: both partners purified

Kd [µM]	Binder
11	B1
154	B2
